From publication PMC4351158 (Structure (London, England : 1993), 2015)
Where no end group is shown, it is not given here. fluorescein = fluorescein, a fluorescent label on the peptide N-terminus

Tests used:
Experiment in all cases: fluorescence polarisation
DegS H198P/P229A = biological target: T1, DegS H198P/P229A (E. coli, UniProt P0AEE3 27-355, H198P | P229A)
T1 sequence (looked up): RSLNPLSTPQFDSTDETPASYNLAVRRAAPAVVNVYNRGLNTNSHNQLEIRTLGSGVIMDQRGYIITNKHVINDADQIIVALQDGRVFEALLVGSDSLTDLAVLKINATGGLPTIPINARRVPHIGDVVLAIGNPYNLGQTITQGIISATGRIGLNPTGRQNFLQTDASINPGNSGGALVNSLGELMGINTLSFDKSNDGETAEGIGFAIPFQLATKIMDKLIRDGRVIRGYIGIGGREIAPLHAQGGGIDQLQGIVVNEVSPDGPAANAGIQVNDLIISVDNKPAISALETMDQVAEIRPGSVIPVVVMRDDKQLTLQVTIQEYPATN

DegS F220A/H198P = biological target: T2, DegS F220A/H198P (E. coli, UniProt P0AEE3 27-355, F220A | H198P)
T2 sequence (looked up): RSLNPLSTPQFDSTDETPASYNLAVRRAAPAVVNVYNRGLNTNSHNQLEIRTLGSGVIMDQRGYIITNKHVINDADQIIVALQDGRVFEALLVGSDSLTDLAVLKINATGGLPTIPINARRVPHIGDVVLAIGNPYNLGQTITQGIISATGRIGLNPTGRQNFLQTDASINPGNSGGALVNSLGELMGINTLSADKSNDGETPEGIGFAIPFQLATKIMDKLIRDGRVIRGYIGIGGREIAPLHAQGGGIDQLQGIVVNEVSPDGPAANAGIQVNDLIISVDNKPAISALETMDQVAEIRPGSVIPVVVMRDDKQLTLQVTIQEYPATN

DegS P161A = biological target: T3, DegS P161A (E. coli, UniProt P0AEE3 27-355, P161A)
T3 sequence (looked up): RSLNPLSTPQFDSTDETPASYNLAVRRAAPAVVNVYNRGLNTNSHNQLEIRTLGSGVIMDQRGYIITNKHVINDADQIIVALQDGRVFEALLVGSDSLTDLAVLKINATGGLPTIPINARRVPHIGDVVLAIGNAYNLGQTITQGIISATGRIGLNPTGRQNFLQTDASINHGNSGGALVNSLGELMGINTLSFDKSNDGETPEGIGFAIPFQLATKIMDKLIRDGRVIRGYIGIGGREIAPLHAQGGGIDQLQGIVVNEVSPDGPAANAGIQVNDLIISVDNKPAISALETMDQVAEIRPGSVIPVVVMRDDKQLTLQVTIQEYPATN

DegS F234A = biological target: T4, DegS F234A (E. coli, UniProt P0AEE3 27-355, F234A)
T4 sequence (looked up): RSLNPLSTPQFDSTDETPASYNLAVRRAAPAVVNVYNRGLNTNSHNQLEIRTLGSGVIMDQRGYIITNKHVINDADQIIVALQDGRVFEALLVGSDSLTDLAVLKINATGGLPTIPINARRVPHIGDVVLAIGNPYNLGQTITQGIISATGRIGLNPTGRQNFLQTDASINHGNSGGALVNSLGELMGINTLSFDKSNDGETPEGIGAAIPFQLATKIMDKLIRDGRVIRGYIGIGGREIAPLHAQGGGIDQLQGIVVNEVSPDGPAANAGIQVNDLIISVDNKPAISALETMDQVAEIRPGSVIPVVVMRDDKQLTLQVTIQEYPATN

DegS L164A/H198P = biological target: T5, DegS L164A/H198P (E. coli, UniProt P0AEE3 27-355, L164A | H198P)
T5 sequence (looked up): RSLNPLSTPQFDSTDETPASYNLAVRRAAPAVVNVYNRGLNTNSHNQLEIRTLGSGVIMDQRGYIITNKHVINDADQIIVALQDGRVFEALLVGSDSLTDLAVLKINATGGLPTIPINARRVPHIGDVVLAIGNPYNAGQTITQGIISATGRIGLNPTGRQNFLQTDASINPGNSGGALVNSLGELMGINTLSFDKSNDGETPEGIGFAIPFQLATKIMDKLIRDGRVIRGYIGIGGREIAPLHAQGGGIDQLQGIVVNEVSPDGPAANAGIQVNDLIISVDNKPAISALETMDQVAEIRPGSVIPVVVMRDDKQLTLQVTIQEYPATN

Kd (DegS H198P/P229A): 2000 ± 100 nM
Kd (DegS F220A/H198P): 1600 ± 100 nM
Kd (DegS P161A): 1500 ± 100 nM
Kd (DegS F234A): 5900 ± 600 nM
Kd (DegS L164A/H198P): 2500 ± 500 nM
Binder: fluorescein-DNRDGNVYYF [fluorescent OMP peptide fluorescein-DNRDGNVYYF]
